Reference: patent US20200040086A1 (BERLIN CHEMIE, published 2020)

Experiments:
[1] = target: T1, LY75 (DEC-205) on COLO205 cells (human, UniProt O60449 28-1722); experiment: competitive FACS on COLO205 cells
T1 construct: also called Lymphocyte antigen 75
Method: COLO205 cells (ATCC, catalog # CCL-222) were detached from tissue culture flasks with Cell Stripper (Cellgro, catalog # MT-25-056CI). Cells were washed and resuspended in FACS buffer (PBS+2% FBS), neutralized with growth media, and counted. Cells were plated at 50,000 cells per well in a V Bottom 96-well plate. Cells were washed once with FACS buffer (PBS (Fisher, catalog # SH30028-03)+2% FBS). An anti-LY75-mAb (Selected from Example 1) or LY75_A1 was added to wells starting at 250 nM and diluted serially 3 fold and applied to the relevant wells for 45 minutes on ice. Test wells that required single or multiple staining steps were left in FACS buffer as appropriate to ensure the final staining was completed simultaneously for all conditions tested. Two wells were left unstained in FACS buffer as controls.
After the incubation with blocking antibody, cells were washed twice in FACS buffer. The cells were resuspended in FACS buffer containing the anti-LY75-mAb conjugated to MCC-DM1 (1 nM) and incubated on ice for 45 minutes. The cells were washed as above and resuspended in FACS buffer plus 1 ug/ml mouse anti-maytansine antibody and incubated in ice for 45 minutes. […] Mean fluorescence intensity of each sample was determined using a Guava EasyCyte Plus HT Flow Cytometer (96 well plate formats) and the raw data was analyzed using the Guava Cytosoft.

WIQYKGHC = target: T2, WIQYKGHC; experiment: peptide microarray of 8mer LY75 peptides
T2 construct: 8mer of LY75 on the peptide microarray, chart Region 10
T2 peptide: WIQYKGHC

[2] = target: T3, LY75 Region 4 (aa883-901) (human); experiment: peptide microarray; signal above the cut off of 3000
T3 construct: Region made up of overlapping 8mers on the array
T3 peptide: DDHFTYSRYPWHRFPVTFG

[3] = target: T4, LY75 Region 5 (aa1029-1040) (human); experiment: as above
T4 construct: Region made up of overlapping 8mers on the array
T4 peptide: RELTYSNFHPLL

[4] = target: T5, LY75 Region 6 (aa1077-1093) (human); experiment: as above
T5 construct: Region made up of overlapping 8mers on the array
T5 peptide: FTSCSERHFVSLCQKYS

[5] = target: T6, LY75 Region 7 (aa1107-1118) (human); experiment: as above
T6 construct: Region made up of overlapping 8mers on the array
T6 peptide: TVKYLNNLYKII

[6] = target: T7, LY75 Region 3 (aa761-780) (human); experiment: as above
T7 construct: Region made up of overlapping 8mers on the array
T7 peptide: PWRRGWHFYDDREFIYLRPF

SCYKVFHA = target: T8, SCYKVFHA; experiment: peptide microarray of 8mer LY75 peptides, LY75_A1 at 1 µg/mL, anti-human IgG Alexa 647
T8 construct: 8mer of LY75 on the peptide microarray, chart Region 2
T8 peptide: SCYKVFHA
Method: (§1) The peptide microarray analysis was performed by LC Sciences, Houston Tex., in brief the method comprised the following steps:—Contiguous 8mer peptides of LY75 protein having […] spanning residues 216 to 1666 of the full length LY75 protein were synthesized and immobilized on a microarray chip. The chip comprised three panels such that the experiment was performed in triplicate. The microarray was addressed with LY75_A1 to identify the peptides to which the antibody bound. The binding assay was performed under the following conditions:—
(§2) The microarray comprising the contiguous peptides in triplicate was washed with 1 mL of binding buffer at 4° C. for 20 min. It was then incubated with 1 μg/mL LY75_A1 in binding buffer (pH 7.0) at 4° C. for 2 hrs. The array was again washed with 0.5 mL of washing buffer at 4° C. for 30 min then incubated with 25 ng/mL anti-human IgG Alexa 647 conjugate in binding buffer (pH 7.0) at 4° C. for 1 hr. The array was again washed with 0.5 mL of washing buffer at 4° C. for 30 min.

EVKDCRSF = target: T9, EVKDCRSF; experiment: as above
T9 construct: 8mer of LY75 on the peptide microarray, chart Region 1
T9 peptide: EVKDCRSF
Method: as §1, §2

DREFIYLR = target: T10, DREFIYLR; experiment: as above
T10 construct: 8mer of LY75 on the peptide microarray, chart Region 3
T10 peptide: DREFIYLR
Method: as §1, §2

RELTYSNF = target: T11, RELTYSNF; experiment: as above
T11 construct: 8mer of LY75 on the peptide microarray, chart Region 5
T11 peptide: RELTYSNF
Method: as §1, §2

LTYSNFHP = target: T12, LTYSNFHP; experiment: as above
T12 construct: 8mer of LY75 on the peptide microarray, chart Region 5
T12 peptide: LTYSNFHP
Method: as §1, §2

FTSCSERH = target: T13, FTSCSERH; experiment: as above
T13 construct: 8mer of LY75 on the peptide microarray, chart Region 6
T13 peptide: FTSCSERH
Method: as §1, §2

FVSLCQKY = target: T14, FVSLCQKY; experiment: as above
T14 construct: 8mer of LY75 on the peptide microarray, chart Region 6
T14 peptide: FVSLCQKY
Method: as §1, §2

VSLCQKYS = target: T15, VSLCQKYS; experiment: as above
T15 construct: 8mer of LY75 on the peptide microarray, chart Region 6
T15 peptide: VSLCQKYS
Method: as §1, §2

VKYLNNLY = target: T16, VKYLNNLY; experiment: as above
T16 construct: 8mer of LY75 on the peptide microarray, chart Region 7
T16 peptide: VKYLNNLY
Method: as §1, §2

KGHCYKSD = target: T17, KGHCYKSD; experiment: as above
T17 construct: 8mer of LY75 on the peptide microarray, chart Region 10
T17 peptide: KGHCYKSD
Method: as §1, §2

[7] = target: T18, LY75 tryptic peptide GWHFYDDR (765-772) (human); experiment: peptide microarray of 8mer LY75 peptides (array peptide with the letters of m17), LY75_A1 at 1 µg/mL, anti-human IgG Alexa 647
T18 construct: Tryptic peptide of recombinant LY75 identified by mass spectrometry after pull down
T18 peptide: GWHFYDDR
Method: as §1, §2

T1 sequence (O60449 28-1722 limits assumed): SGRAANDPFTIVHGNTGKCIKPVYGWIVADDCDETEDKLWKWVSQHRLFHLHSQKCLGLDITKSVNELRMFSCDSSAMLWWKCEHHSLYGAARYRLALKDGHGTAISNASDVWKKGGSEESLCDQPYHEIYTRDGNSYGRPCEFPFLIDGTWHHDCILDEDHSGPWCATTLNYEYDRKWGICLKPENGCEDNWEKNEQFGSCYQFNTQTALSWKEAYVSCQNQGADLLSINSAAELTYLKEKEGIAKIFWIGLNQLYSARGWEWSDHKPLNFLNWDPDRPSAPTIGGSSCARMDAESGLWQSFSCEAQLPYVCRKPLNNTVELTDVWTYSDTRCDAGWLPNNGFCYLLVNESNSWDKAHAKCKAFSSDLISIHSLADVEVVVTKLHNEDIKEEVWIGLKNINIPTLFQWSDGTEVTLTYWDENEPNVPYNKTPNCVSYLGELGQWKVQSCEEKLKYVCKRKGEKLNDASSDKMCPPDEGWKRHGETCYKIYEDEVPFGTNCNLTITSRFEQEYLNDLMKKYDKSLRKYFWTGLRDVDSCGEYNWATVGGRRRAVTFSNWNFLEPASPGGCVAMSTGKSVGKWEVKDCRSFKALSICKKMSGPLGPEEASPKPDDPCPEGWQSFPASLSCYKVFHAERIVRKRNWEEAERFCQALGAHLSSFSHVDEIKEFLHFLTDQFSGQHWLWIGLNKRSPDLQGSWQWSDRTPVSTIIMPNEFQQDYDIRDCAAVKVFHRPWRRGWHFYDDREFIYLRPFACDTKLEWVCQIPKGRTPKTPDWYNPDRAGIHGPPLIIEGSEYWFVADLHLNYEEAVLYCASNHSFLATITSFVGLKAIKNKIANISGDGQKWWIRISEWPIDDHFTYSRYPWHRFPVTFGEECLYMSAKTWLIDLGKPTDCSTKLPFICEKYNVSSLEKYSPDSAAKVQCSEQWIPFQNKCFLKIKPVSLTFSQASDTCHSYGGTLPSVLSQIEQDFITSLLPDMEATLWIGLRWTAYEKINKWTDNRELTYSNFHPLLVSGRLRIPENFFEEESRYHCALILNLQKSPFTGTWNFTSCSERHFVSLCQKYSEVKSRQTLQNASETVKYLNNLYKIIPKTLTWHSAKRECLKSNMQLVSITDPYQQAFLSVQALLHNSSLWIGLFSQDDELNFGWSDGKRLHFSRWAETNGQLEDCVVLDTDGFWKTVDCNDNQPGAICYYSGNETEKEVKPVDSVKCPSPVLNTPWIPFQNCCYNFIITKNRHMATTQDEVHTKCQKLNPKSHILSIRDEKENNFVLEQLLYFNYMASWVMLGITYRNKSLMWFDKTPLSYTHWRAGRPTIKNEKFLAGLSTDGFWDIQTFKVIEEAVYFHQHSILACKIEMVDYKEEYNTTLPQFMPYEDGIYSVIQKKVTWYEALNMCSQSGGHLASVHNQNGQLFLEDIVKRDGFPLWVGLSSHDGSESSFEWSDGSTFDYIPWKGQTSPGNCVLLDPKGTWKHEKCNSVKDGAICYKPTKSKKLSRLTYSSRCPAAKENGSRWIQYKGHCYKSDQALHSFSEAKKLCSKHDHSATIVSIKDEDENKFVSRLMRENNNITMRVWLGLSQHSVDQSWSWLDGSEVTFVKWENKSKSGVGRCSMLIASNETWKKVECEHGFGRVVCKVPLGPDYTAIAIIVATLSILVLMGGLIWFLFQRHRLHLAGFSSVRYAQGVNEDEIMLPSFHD

B1: LY75_A1 (antibody, V domains shown)
VH: EVQLVESGGGLVKPGGSLRLSCAASGFTYSNAWMSWVRQAPGKGLEWVGRIKSKTDGGTTDYAAPVQGRFTISRDDSKNTLYLQMNSLKTEDTAVYYCTIFGVVSFDYWGQGTLVTVSS
VL: DVQMTQSPSSLSASVGDRVTITCRASQSISDYLSWYQQRPGKAPNLLIYAASNLKTGVPSRFSGSGSGTDFTLTISTLQPEDFATYYCQQSYRSPWTFGQGTKVEIKR
notes: detected with anti-human IgG in the microarray; also called antibody LY75_A1; LY75_A1 monoclonal antibody
binding result [1]: binds
binding result (WIQYKGHC): no binding (tested: 1 µg/mL)
binding result [2]: binds
binding result [3]: binds
binding result [4]: binds
binding result [5]: binds
binding result [6]: binds
binding result (SCYKVFHA): binds
binding result (EVKDCRSF): binds
binding result (DREFIYLR): binds
binding result (RELTYSNF): binds
binding result (LTYSNFHP): binds
binding result (FTSCSERH): binds
binding result (FVSLCQKY): binds
binding result (VSLCQKYS): binds
binding result (VKYLNNLY): binds
binding result (KGHCYKSD): binds
binding result [7]: binds
